Test system: Nc1ncnc2c1ncn2[C@@H]1O[C@H](COP(=O)(O)OP(=O)(O)OP(=O)(O)O)[C@@H](O)[C@H]1O
Assay: purified protein
Details: varied substrate not named in table (text: substrates ATP and AMP)

Substance	Km	kcat	kcat/Km
AKeco (Escherichia coli K-12)	110 ± 9 µM	360 ± 11 s⁻¹	3.3e+06 M⁻¹ s⁻¹
AKeco (Escherichia coli K-12; E114A)	36 ± 7 µM	254 s⁻¹	7.1e+06 M⁻¹ s⁻¹

— paper PMC12548092, “Exploring Helical Fraying Linked to Dynamics and Catalysis in Adenylate Kinase” (Biochemistry, 2025)
